Assay results as given in the DeepSol protein solubility set.

Test: soluble on expression in E. coli; label from the status in PepcDB or PDB records

| Sequence | soluble on expression in E. coli |
| --- | --- |
| MVLIDTEYVRAVVHNVGHRARCGVASKVRALKLAHSQARLRSYSQACERASYIDGRCEYYPSLDVASSSRNSEMLNSGFFDGYSWNTPNIQSQSSSDVTAKTELRRLMTETSEDPIHKEDSETLRRLIMWQEFRDAGVDVNTTQPGYGYGIEAKVEPFPQKLQNYESIHLETRRSSCPSFGTQLYNEPIYEGDEDPLGLGITPPVVTKTSGSLSNNGLDGINLNWKSIPAPVHQMQQHNANGDFVAAWPQNTIEKPTVGPLDKLQKQFEDIKLISISSGENTPTTRSKADEWLDDVLRVSMSMSPTSPSSDPPSTSSYSVLPKSGPPPAHAPPPLPVRQAVSNGSPSIYQQQLQQANSTRNSPAGINWNSSPNPMKISQPPAKPVDPFDVQWSRLAVNNTH | not soluble |
| MVLSRHVIITPCPDRPGTSILFSAKRGALILVDDELLAAIGAGGLDADEEQTLAELGFLVPDHDSEQQEMCSFVDESNRASRSFAALIILNLSCNLACSYCFEGNRRGAHFMDDDTADRLVAYLVSGPVAEGRSLSLRFYGGEPLLSVPTIRRIARPLKKVMDARGLSFSFSLTTNGTLLTRELVEELIPLGLVGATVTLDGPPDIHDAARPFVGGEGSFSVIFANLKAVADLIALEIGGNFTPETYREYPRLFDLLVAEGLGPERLALVRFNAVMSAGENRALPEFTGGCASVNEPWLKDATLFIREELLRRGFPAPGLSPHYCAIEAEDSLIVNHDGTFYRCPAFIGIEGLAAGSLDDGLSDHAASHGLGAWKNEECLSCAYLPLCFGGCRYYGYLEHGRIDRVSCGRDLFDAIVGPFLALEVKYRHQPGEDASDTDGDSD | not soluble |
| MVLYVPTYREDKADNRAIDKAYFEKCLPGYTLINKLHPSIEDSDIDDVSSIDTSTLMLMSDIIISDYSSLPIEASLLDIPTIFYVYDEGTYDKVRGLNQFYKAIPDSYKVYTEEDLIMTIQEKEHLLSPLFKDWHKYNTDKSLHQLTEYIDKMVTK | not soluble |
| MVMATRVKNVGNWRIMPDATLAASYQAYKRCQNRRPDKAFTPHPAISAPMPDATLAASYQACKMCQNRVGRIRRSRRIRQLEHHHHHH | not soluble |
| MVMSFIKYPLPESVLQATEQRIQWVMDNFSRICVSFSGGKDSTVMLHLTAQAARLQGKKICVLFIDWEAQFSCTIAHCEKLRALYADVIETFYWVALPLTTQNALTQYKPQWQCWEPGTEWVRQPPPWAITHPGYFSFYQPGMSFEAFVSHFAEWFSQRRPAAVLVGIRADESLNRFMTISSQRKQRFADDKPWTTSAPGGHAWYIYPLYDWKTADIWTWFAKSGEPYNPLYDLMYQAGVPLRYMRICEP | not soluble |
| MVMSKYTQEQIKNLVEGNLDWNTVLKMLSMPKDHERFQMYLKVLQDKVDFDDKIVLPLGPHLFVVQDAQKKWVIKCSCGHAFCAPEENWKLHANIYVRDTAEKMEEVYPKLLASDTHWQVYREYICPDCGILLDVEAPTPWYPVIHDFEPDIEVFYKDWLGIQPPERR | not soluble |
| MVNLELIEVQEGKAKILIPKAESIYDSPVFYNPRMALNRDIVVVLLNILNPKIVLDALSATGIRGIRFALETPAEEVWLNDISEDAYELMKRNVMLNFDGELRESKGRAILKGEKTIVINHDDANRLMAERHRYFHFIDLDPFGSPMEFLDTALRSAKRRGILGVTATDGAPLCGAHPRACLRKYLAVPLRGELCHEVGTRILVGVIARYAAKYDLGIDVILAYYKDHYFRAFVKLKDGARKGDETLEKLGYIYFDDKTGKFELEQGFLPTRPNAYGPVWLGPLKDEKIVSKMVKEAESLSLARKKQALKLLKMIDQELDIPLFYDTHAIGRRLKIETKKVEEIISALREQGYEATRTHFSPTGIKTSAPYEVFIETIKRI | soluble |
| MVNLTRIYTRTGDKGTTALGDMSRVPKTDLRISAYADANEANAVIGTAIALGGLPEEVVKVLVRVQNDLFDVGADLSTPVVENPEYPPLRVEQFYVDKLEADCDRYLAEVEKLRSFILPGGTAGAALLHQACTVVRRAERSTWAALEAHGETMNPLTATYLNRLSDLLFILARVANKEVGDVLWVPGGERLEHHHHHH | soluble |
| MVNPEEQPISILFLGIDDNDGRRKKGQDAEHSRSDAMILTTFNQSKHQIRMLSIPRDTISYIPKVGYYDKITHAHAYGGPIAAMDSVEATMNVPVDYYVRVNMKAFVEAVNELGGIYYDVPYDLNEPNTDDTGKIKIKKGYQKLNGDEALAVARTRHHDSDLKRGQRQMELIKILFQKAQEVDSIDKLDNVIQIVGKNAKHNLTNSEIKALAKMYLTNDVEIKTAQLKGKDDMLNGIYYYHPSVESIQKYANLLRKDLELSPINDKNDFLDQRVINHYGSLIPLTPLDSSLLRKEQNDTTDKDKTSNENNDSTNNSDSSNQQQPATDQNLNQNQGGTQQAPQASNNQNGVVNLEHHHHHH | soluble |
| MVNQPLVSIIIPAYRAENTIAFTVRSVLAQTYDHWQVAIGVDDQVDYLQLLAEQGINDPRLKQVFTGGIGSGEAIARNKAVSICDGDILANLDADDAFASDRLEKLVPLAEKYGVAIDNTGVYNSELVLYKQPFPQRQALNFATAADILSPRIPFFPVFQRQLLGDGWTKVPFAADVLFNLELLSRTEKVAIHPEPLYRYYKRDNSITQSANAFETAEKAYLTILSLLDEGALTLTDAIRQAARQEFSENLALNKVFRRYMEEGRCQNLEQFLDMTNNGQKIEFVSNLNLEHHHHHH | soluble |
| MVPEVFAQARLRMDQLTKPPRALGYLEEVALRLAALQGRVKPELGRGAVVVAAADHGVVAEGVSAYPQEVTRQMVLNFLRGGAAINQFALAADCAVYVLDVGVVGELPDHPGLLKRKVRPGTANLAQGPAMTPEEAERALLAGREAARRAIAEGATLLAAGDMGIGNTTAAAALTAALLGLPPEAVVGRGTGVGEEGLRRKRQAVARALARLHPGMGPLEVAAEVGGIELVAIAGIYLEGYEAGLPLVLDGFPVTAGALLAWKMAPGLRDHLFAGHLSREPGHRHQLEALGLRPLLDLDLALGEGTGAVLAMPLLRAAARILHMATFQEAGVSRG | soluble |
| MVQDWHQQEKARMIQTLTGTKAVYGSEVESKIIEFAIVGADEVVAEKLGVSIGDFVYKIIRLRIIHSIPTIMEHTWMPISVIPGVEASVLEESIYSHIQNKLGLEVGTSVVRVKGIRPDDREKQFMNLTNQDFLMRVEQVAYLTDGRTFEYSYADHLPETFEFETVITAKKL | not soluble |
| MVQLDGGQFEMGTKATDGKDGESPVMQVKVLPFAIDKYPVTNRDFREFVRAKKYKTEAEAFGWSFVFEDFVSEELKKKVTQKLESAPWWLPVERAFWRQVSNLSVPLLLSGGSKGLFAAE | not soluble |
| MVRELKRFGARFTFLFSARRMCPLMTAEGSLPSVEDFWGNCRIARAKGVCSYYEELSRLDEAEVAQYVRSRPVISAYRLAWDIAKFKGACPFFALKGLVEDSQFIVATYPYLFKEDIFRSFLEPYDYGDFVAVVDEAHSLLNIHSLHEYRVSQRDLDLALKEVREYASSARDFIAWLESVLKKASRLKVSRITLLDKQPFLEGLDDLSVVEDVVETIRARKAEEALSLSGPSGIGRVKTMASRIYSWLSVLVRDDSYLFAEKDEGGVLWLIATPLDPSRVVKEPLEKVKAAVLLSGTMPSTKLYMEVLGVSRSFKFVDVNLMYGARGFGRFFTIVAADVTTAYRSRGDSMYRLIASRIAMADRLLPGLKLAVYPSYEVMYRVVERLPADVETIVETRGISLDEVEAKILARDPGEKIIINAVAGGKLVEGVEFVDYEGRNLLSTVIVVGVPFPQPDDYTRKHLEVMASRIGVSNARKLVYLVNPMIKVRQALGRGIRGPEDRALYILMDYRYLRRDLKEVLGMPYHRVVKGAEDFEEAVKAARSRVFGG | soluble |
| MVRSFIYEPFQIPSGSMMPTLLIGDFILVEKFAYGIKDPIYQKTLIETGHPKRGDIVVFKYPEDPKLDYIKRAVGLPGDKVTYDPVSKELTIQPGCSSGQACENALPVTYSNVEPSDFVQTFSRRNGGEATSGFFEVPKNETKENGIRLSERKETLGDVTHRILTVPIAQDQVGMYYQQPGQQLATWIVPPGQYFMMGDNRDNSADSRYWGFVPEANLVGRATAIWMSFDKQEGEWPTGLRLSRIGGIH | soluble |
| MVRTCSNCGSSEIDEDAARGDATCTACGTVLEESIVVTENQFQERAGGSGHTLVGQFVSSERAAANNFNGMGSQESREMTYAKGRKVIDELGSQLRINSHCMNTAFNFYKMCVSRNLTRGRNRSSVVAVCMYITCRLENTAHLLLDFSDVTQINVFDLGRNLNYLSRSLRINLPSTDPCLYIMRFACVLDFGDKQKEVVNLATRLVQRMKRDWMSTGRRPTGICGAALLIAARSLNFNRSINDIVRVVHISEGVIRKRLDEFSQTPSGSLTIDEFSTVDLEHSEDPPAYRESRRKAREDQLRKEAEQAESMKEQLGEMEAHVEAALDKKRKEKFSKSPYARMISENLGKENDKMQTLTETVVESSGLEKGADEMVRNEIINTVFNAAEEDPCTSNSLEKYDKYRPSLESLGIKRTSEPEPEPVPHPIVNADLEEDISDSEIDSYILTESEVAIKTDYWMKANGEAMKEIEEKKRERELNGGVKKKKPRSNRKTDTTSTSVASAVEKVIAEKKLSNKVNYEMLKDLETMATGIKRDIRESTPAPVTPISIKVDSSDVTPDTLSKSEKIARGKNIRSQASESTIQKLRSIFDLTEECSETSKNSSPKVNLKVESASPSTSEVSSIEHKPFVPPARSRYAKVKPIIGAKKLAALNEVKNVHTVPEPSAPAEPIVSEAPLQVKTSSSDPIVTSTEVPSVAEPPAPIQNVEEAKPIVPVKSRYAKAKPNLKPIKQKTAVDVVTVGEGESSEPSAKRTKAEHLES | not soluble |
| MVRVYIGRFPNRASDRDAEHFFCDYGKLPDAIMKNVFGVGCKDFQDQSDADDIICDEQTRILLVEKLKNAKEYPTINHD | not soluble |
| MVSHHNLTTGATLINEQWLLTTAKNLFLNHSENATAKDIAPTLTLYVGKKQLVEIEKVVLHPNYSQVDIGLIKLKQKVSVNERVMPICLPSKDYAEVGRVGYVSGWGRNANFKFTDHLKYVMLPVADQDQCIRHYEGSTVPEKKTPKSPVGVQPILNEHTFCAGMSKYQEDTCYGDAGSAFAVHDLEEDTWYATGILSFDKSCAVAEYGVYVKVTSIQDWVQKTIAEN | not soluble |
| MVSKNKKLNLKDKYQYLTRDMAWEPTYQDKKDIFPEEDFEGIKITDWSQWEDPFRLTMDAYWKYQAEKEKKLYAIFDAFAQNNGHQNISDARYVNALKLFISGISPLEHAAFQGYSKVGRQFSGAGARVACQMQAIDELRHSQTQQHAMSHYNKHFNGLHDGPHMHDRVWYLSVPKSFFDDARSAGPFEFLTAISFSFEYVLTNLLFVPFMSGAAYNGDMATVTFGFSAQSDEARHMTLGLEVIKFILEQHEDNVPIVQRWIDKWFWRGFRLLSLVSMMMDYMLPNKVMSWSEAWEVYYEQNGGALFKDLERYGIRPPKYQDVANDAKHHLSHQLWTTFYQYCQATNFHTWIPEKEEMDWMSEKYPDTFDKYYRPRYEYLAKEAAAGRRFYNNTLPQLCQVCQIPTIFTEKDAPTMLSHRQIEHEGERYHFCSDGCCDIFKHEPEKYIQAWLPVHQIYQGNCEGGDLETVVQKYYHINIGEDNFDYVGSPDQKHWLSIKGRKPADKNQDDA | soluble |
| MVSMNMFEEVEVEAYVYPTEDIEKVKKAMLNLVPGLKFEAFDKGEYMILVGRTRDKRALQRLYELFRGQQILDTARMMLEEGYFGEEIIIKVHKQVAYVGKVNFNEESPLGPITIIIRTKEPQKLMKWLAPRTKDGVPIEAAALEHHHHHH | not soluble |
| MVSRLARLARRVGRKLKALTPTPKTPEPPSLPLILDAPVAPGFTTAREVWCAPGFGVVVDAGGQVLGGAARQALGFSPDLAALPGVRVSDGGSRLILPEGAPRLARGAVVAGWGDLRNYAGFVLNTLPALVEASKAGVLADHPLVTPPLTRWQADLLTLAGLASPLINAAPWVVLDEAVLSPPPSPVATHAMLAEVRERVLATPGPASGARPKLYVSRADAMNAVMVDEEGVEIELAALGYTIVRPETSSTRELIGLFREAKVIVAPTGTVLANALFCAADAQIVEIRPPGANGLWVRDLAVLAGATWHGFDAPGEKEAPGAPLDPALPPASAFGWRADAAALLAFLAQRSLEHHHHHH | not soluble |
